Data taken from US20100137155A1, “BIOSENSOR, METHOD FOR FABRICATING THE SAME, DETECTING METHOD UTILIZING THE SAME” (SHARP KABUCHIKI KAISHA, priority 2006, published 2010).

Experiments:
Cry-J1 = target: T1, Cry-J1 (Cryptomeria japonica, UniProt P18632); test: ELISA detection efficiency for Cry-J1 of peptides bonded to PEG-DG linkers on aminated plate (Examples 2-5); format: binding, Japanese cedar (Cryptomeria japonica); settings: for reactivity with respect to Cry-J1 (SH1 compared with AL1) / inclination of the 450 nm light absorbance versus antigen Cryj1 concentration: PEG-DG chain length 11.0 Å, n=2; for reactivity with respect to Cry-J1 (SH1 compared with AL1): FIG. 10; for inclination of the 450 nm light absorbance versus antigen Cryj1 concentration: antigen Cryj1 0 to 2.0 μg/mL
T1 sequence (P18632 22-374): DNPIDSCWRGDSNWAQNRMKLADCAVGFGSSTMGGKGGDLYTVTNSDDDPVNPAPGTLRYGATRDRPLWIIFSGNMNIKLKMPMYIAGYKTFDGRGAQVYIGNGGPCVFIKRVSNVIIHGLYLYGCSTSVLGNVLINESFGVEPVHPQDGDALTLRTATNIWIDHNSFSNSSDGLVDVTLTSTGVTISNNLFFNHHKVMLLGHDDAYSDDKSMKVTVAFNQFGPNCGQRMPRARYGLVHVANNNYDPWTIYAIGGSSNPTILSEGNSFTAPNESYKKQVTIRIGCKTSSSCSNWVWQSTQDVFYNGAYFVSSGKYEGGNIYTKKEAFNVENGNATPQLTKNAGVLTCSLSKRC
Procedure: In order to examine influences that the length of the linker has on the detection sensitivity of the biosensor, the following experiment was carried out. A 5 μg/mL aqueous solution of acetyl-NH-TEYTIHWWK-COOH(SH1) serving as an artificially synthesized CRY-J1 recognition peptide was mixed with a sodium hydrogen carbonate buffer solution (pH=9) containing 45 μM poly(or mono)ethylene glycol diglycidyl ether (PEG-DG) in order to cause a solid phase reaction.
As PEG-DG (poly(or mono)ethylene glycol diglycidyl ether) serving as a linker molecule, six kinds thereof with different chain lengths were selected. Specifically, sample 1: 8.3 Å chain length, degree of polymerization n=1; sample 2: 11.0 Å chain length, degree of polymerization n=2; sample 3: 16.6 Å chain length, degree of polymerization n=4; sample 4: […] chain length, degree of polymerization n=9; sample 5: 41.4 Å chain length, degree of polymerization n=13; and sample 6: 66.2 Å chain length, degree of polymerization n=22. The PEG-DG was selected from the Denacole EX series of Nagase ChemteX Corporation.
Using an aminated 96-hole ELISA method plate (Sumilon MS-3608F, available from SUMITOMO BAKELITE Co., Ltd.) as a solid phase, the solid phase reaction was completed in 24 hours at room temperature.
Blocking One, available from Nacalai Tesque, Inc., was used for the blocking, and the reaction was carried out at room temperature and completed in 24 hours.
To each of the linker molecules with different lengths, 50 μL of each of the acetyl-NH-TEYTIHWWK-COOH diluted solutions of 0 μg/mL, 0.2 μg/mL, 0.5 μg/mL, 1.0 μg/mL, 2.0 μg/mL, and 5.0 μg/mL was dropped to cause bonding between the linker and the peptide.
Anti-cedar pollen antigen Cry-J1-HRP (Horse Radish Peroxidase) (SEIKAGAKU CORPORATION) serving as a secondary antibody was prepared by diluting it 1000-fold with a phosphoric acid buffer solution containing 0.1% Tween 20, and 100 μL of this preparation solution was added to cause a reaction for one hour at room temperature. […]
The solid phase reaction was caused by mixing a 5 μg/mL aqueous solution of acetyl-NH-KTEYTIHWWK-COOH with a sodium hydrogen carbonate buffer solution (pH=9) containing 45 μM poly(or mono)ethylene glycol diglycidyl ether (PEG-DG).
The solid phase reaction was caused by mixing a 5 μg/mL aqueous solution of acetyl-NH-TEETIWWWK-COOH with a sodium hydrogen carbonate buffer solution (pH=9) containing 45 μM polyethylene glycol diglycidyl ether (PEG-DG).
As polyethylene glycol diglycidyl ether (PEG-DG), one such that the chain length was 11.0 Å and the degree of polymerization was n=2 was used.
The reaction of the artificially synthesized peptide AM was carried out in such a manner that 50 μL of each of the antigen Cryj1 diluted solutions of 0 μg/mL, 0.2 μg/mL, 0.5 μg/mL, 1.0 μg/mL, 2.0 μg/mL, and 5.0 μg/mL was dropped to cause bonding between the linker and the peptide.
For acetyl-NH-TEYTIHWWK-COOH(SH1) serving as the artificially synthesized Cry-J1 recognition peptide, a solid phase was carried out in accordance with example 2. The poly(or mono)ethylene glycol diglycidyl ether (PEG-DG) that was used was such that the chain length was 11.0 Å and the degree of polymerization was n=2.

[1] = target: T2, pollen allergen protein (Cry-J1) (Cryptomeria japonica, UniProt P18632); test: ELISA of Cry-J1 capture by peptide immobilized on amino group-bonded plate via polyethylene diglycidyl ether (Example 1); format: binding, Japanese cedar (Cryptomeria japonica); settings: Cry-J1 0, 1, 5, 10 ng/mL; peptide immobilized through polyethylene diglycidyl ether; FIG. 5
T2 construct: purchased SEIKAGAKU CORPORATION
T2 sequence (P18632 22-374): T1 sequence (P18632 22-374)
Procedure: The reactivity between anti-Cry-J1 antibody H chain hypervariable area peptide (acetylated TEYTIHWWK) and pollen allergen protein (Cry-J1) was studied by the ELISA method. The experiment method can be summarized as follows.
To a well of an amino group-bonded plate (MS-3608F, available from SUMITOMO BAKELITE Co., Ltd.), a 200 μL solution of 0.0095 mg/mL acetylated TEYTIHWWK and 0.018 mg/mL polyethylene diglycidyl ether was added, and the resulting product was settled for a night at 4° C.
The peptide solution was taken out, followed by addition thereto 200 μL Blocking One (available from Nacalai Tesque, Inc.), and the resulting product was subjected to blocking processing.
After the blocking processing, the blocking solution was taken out and the well was washed with PBS containing 0.05% Tween 20. As the washing, the operation of adding and taking out 200 μL PBS containing 0.05% Tween 20 (20 mM of sodium phosphate, pH 7.4, 0.15 M of NaCl) to and of the well was carried out three times. […]
To the well, 100 μL color developing solution (available from Nacalai Tesque, Inc.) was added to cause a reaction for 10 minutes at room temperature. After the 10 minutes of reaction, 100 μL stop solution was added, and a 450 nm light absorbance was measured with a plate reader (available from Bio-Rad Laboratories, Inc.).

Substance	reactivity with respect to Cry-J1 (SH1 compared with AL1) (Cry-J1)	inclination of the 450 nm light absorbance versus antigen Cryj1 concentration (Cry-J1)	other results
acetyl-NH-KTEYTIHWW-COOH (Ac-KTEYTIHWW-OH) [anti-Cry-J1 antibody H chain hypervariable area peptide with N terminal lysine, α-amino group acetylated]	–	–	detection efficiency with respect to Cry-J1 (inclination of 450 nm light absorbance) (Cry-J1; linker bonded at N terminal lysine side chain, linker lengths of 20 to 60 Å (degree of polymerization n=4 to 9), FIG. 7): high
acetyl-NH-KTEYTIHWWK-COOH (Ac-KTEYTIHWWK-OH) [Cry-J1 recognition peptide with a lysine residue at both terminals, N terminal α-amino group acetylated]	–	–	detection efficiency with respect to Cry-J1 (inclination of 450 nm light absorbance) (Cry-J1; one linker at N terminal lysine and another at C terminal lysine, linker lengths 8.3 to 66.2 Å (n=1 to 22), FIG. 8): substantially the same irrespective of the linker length
acetyl-NH-TEETIWWWK-COOH (Ac-TEETIWWWK-OH) [peptide in which tyrosine was changed to glutamic acid and histidine to tryptophan]	substantially the same reactivity	linear	–
acetyl-NH-TEYTIHWWK-COOH (Ac-TEYTIHWWK-OH) [artificially synthesized CRY-J1 recognition peptide; only α-amino group of N terminal T acetylated, lysine added to C terminal]	substantially the same reactivity	linear	detection efficiency with respect to Cry-J1 (inclination of 450 nm light absorbance) (Cry-J1; linker bonded at C terminal lysine, linker lengths of 15 Å or less (n=1 or 2) compared with 16.6 Å or more (n=4 or greater), FIG. 6): higher; reactivity between peptide and pollen allergen protein (Cry-J1), 450 nm light absorbance [1]: captured by the peptide depending on the concentration of the protein
